B1: H18T/A26N/E35D/M47L/V68M/A71G (protein, UniProt P33681 35-288, looked up, variant H18T A26N E35D M47L V68M A71G)
T-lymphocyte activation …: VIHVTKEVKEVATLSCGTNVSVEELNQTRIYWQKDKKMVLTMMSGDLNIWPEYKNRTIFDITNNLSIMILGLRPSDEGTYECVVLKYEKDAFKREHLAEVTLSVKADFPTPSISDFEIPTSNIRRIICSTSGGFPEPHLSWLENGEELNAINTTVSQDPETELYAVSSKLDFNMTTNHSFMCLIKYGHLRVNQTFNWNTTKQEHFPDNLLPSWAITLISVNGIFVICCLTYCFAPRCRERRRNERLRRESVRPV
modifications: Fc fusion
B2: E35D/M47V/N48K/V68M/K89N EAAAK (protein, UniProt P33681 35-288, looked up, variant E35D M47V N48K V68M K89N)
T-lymphocyte activation …: VIHVTKEVKEVATLSCGHNVSVEELAQTRIYWQKDKKMVLTMMSGDVKIWPEYKNRTIFDITNNLSIMILALRPSDEGTYECVVLKYENDAFKREHLAEVTLSVKADFPTPSISDFEIPTSNIRRIICSTSGGFPEPHLSWLENGEELNAINTTVSQDPETELYAVSSKLDFNMTTNHSFMCLIKYGHLRVNQTFNWNTTKQEHFPDNLLPSWAITLISVNGIFVICCLTYCFAPRCRERRRNERLRRESVRPV
modifications: EAAAK linker
B3: H18F/A26N/E35D/M47V/V68M/A71G/D90K (protein, UniProt P33681 35-288, looked up, variant H18F A26N E35D M47V V68M A71G D90K)
T-lymphocyte activation …: VIHVTKEVKEVATLSCGFNVSVEELNQTRIYWQKDKKMVLTMMSGDVNIWPEYKNRTIFDITNNLSIMILGLRPSDEGTYECVVLKYEKKAFKREHLAEVTLSVKADFPTPSISDFEIPTSNIRRIICSTSGGFPEPHLSWLENGEELNAINTTVSQDPETELYAVSSKLDFNMTTNHSFMCLIKYGHLRVNQTFNWNTTKQEHFPDNLLPSWAITLISVNGIFVICCLTYCFAPRCRERRRNERLRRESVRPV
B4: H18V/A26D/E35D/M47V/V68M/A71G/D90G (protein, UniProt P33681 35-288, looked up, variant H18V A26D E35D M47V V68M A71G D90G)
T-lymphocyte activation …: VIHVTKEVKEVATLSCGVNVSVEELDQTRIYWQKDKKMVLTMMSGDVNIWPEYKNRTIFDITNNLSIMILGLRPSDEGTYECVVLKYEKGAFKREHLAEVTLSVKADFPTPSISDFEIPTSNIRRIICSTSGGFPEPHLSWLENGEELNAINTTVSQDPETELYAVSSKLDFNMTTNHSFMCLIKYGHLRVNQTFNWNTTKQEHFPDNLLPSWAITLISVNGIFVICCLTYCFAPRCRERRRNERLRRESVRPV
modifications: Fc fusion
B5: E35D/D46V/M47L/V68M/L85Q/E88D (EAAAK)3 (protein, UniProt P33681 35-288, looked up, variant E35D D46V M47L V68M L85Q E88D)
T-lymphocyte activation …: VIHVTKEVKEVATLSCGHNVSVEELAQTRIYWQKDKKMVLTMMSGVLNIWPEYKNRTIFDITNNLSIMILALRPSDEGTYECVVQKYDKDAFKREHLAEVTLSVKADFPTPSISDFEIPTSNIRRIICSTSGGFPEPHLSWLENGEELNAINTTVSQDPETELYAVSSKLDFNMTTNHSFMCLIKYGHLRVNQTFNWNTTKQEHFPDNLLPSWAITLISVNGIFVICCLTYCFAPRCRERRRNERLRRESVRPV
modifications: (EAAAK)3 linker
B6: H18V/A26Q/E35D/M47V/V68L/A71G/D90G (protein, UniProt P33681 35-288, looked up, variant H18V A26Q E35D M47V V68L A71G D90G)
T-lymphocyte activation …: VIHVTKEVKEVATLSCGVNVSVEELQQTRIYWQKDKKMVLTMMSGDVNIWPEYKNRTIFDITNNLSILILGLRPSDEGTYECVVLKYEKGAFKREHLAEVTLSVKADFPTPSISDFEIPTSNIRRIICSTSGGFPEPHLSWLENGEELNAINTTVSQDPETELYAVSSKLDFNMTTNHSFMCLIKYGHLRVNQTFNWNTTKQEHFPDNLLPSWAITLISVNGIFVICCLTYCFAPRCRERRRNERLRRESVRPV
B7: H18V/A26P/E35D/M47L/V68M/A71G (protein, UniProt P33681 35-288, looked up, variant H18V A26P E35D M47L V68M A71G)
T-lymphocyte activation …: VIHVTKEVKEVATLSCGVNVSVEELPQTRIYWQKDKKMVLTMMSGDLNIWPEYKNRTIFDITNNLSIMILGLRPSDEGTYECVVLKYEKDAFKREHLAEVTLSVKADFPTPSISDFEIPTSNIRRIICSTSGGFPEPHLSWLENGEELNAINTTVSQDPETELYAVSSKLDFNMTTNHSFMCLIKYGHLRVNQTFNWNTTKQEHFPDNLLPSWAITLISVNGIFVICCLTYCFAPRCRERRRNERLRRESVRPV
B8: E35D/M47V/N48K/V68M/K89N delta (protein)
chain: VIHVTKEVKEVATLSCGHNVSVEELAQTRIYWQKDKKMVLTMMSGDVKIWPEYKNRTIFDITNNLSIMILALRPSDEGTYECVVLKYENDAFKREHLAEVTLSVKTHTCPPCPAPEAEGAPSVFLFPPKPKDTLMISRTPEVTCVVVDVSHEDPEVKFNWYVDGVEVHNAKTKPREEQYNSTYRVVSVLTVLHQDWLNGKEYKCKVSNKALPAPIEKTISKAKGQPREPQVYTLPPSREEMTKNQVSLTCLVKGFYPSDIAVEWESNGQPENNYKTTPPVLDSDGSFFLYSKLTVDKSRWQQGNVFSCSVMHEALHNHYTQKSLSLSPG
B9: E35D/D46V/M47L/V68M/L85Q/E88D delta (protein)
chain: VIHVTKEVKEVATLSCGHNVSVEELAQTRIYWQKDKKMVLTMMSGVLNIWPEYKNRTIFDITNNLSIMILALRPSDEGTYECVVQKYDKDAFKREHLAEVTLSVKTHTCPPCPAPEAEGAPSVFLFPPKPKDTLMISRTPEVTCVVVDVSHEDPEVKFNWYVDGVEVHNAKTKPREEQYNSTYRVVSVLTVLHQDWLNGKEYKCKVSNKALPAPIEKTISKAKGQPREPQVYTLPPSREEMTKNQVSLTCLVKGFYPSDIAVEWESNGQPENNYKTTPPVLDSDGSFFLYSKLTVDKSRWQQGNVFSCSVMHEALHNHYTQKSLSLSPG

Assays:
[1] = target: T1, CD28 (Homo sapiens, UniProt P10747); assay: Flow binding to Jurkat/IL2 reporter cells (CD28); set-up: host or cells: Jurkat cells expressing an IL-2-luciferase reporter
How it was run: (§1)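 Fusion proteins bound to CHO cells stably expressing CTLA4 or PD-L1, or to Jurkat/IL2 reporter cells with endogenous CD28, for 45 min on ice after blocking in PBS/1% BSA. Detection with PE anti-human Fc by flow cytometry; PE MFI per cell type and binding EC50 determined.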

[2] = target: huPD-L1 (Homo sapiens, UniProt Q9NZQ7); assay: Flow binding to CHO cells stably expressing PD-L1; set-up: huCTLA4 and huPD-L1, full-length mammalian surface expression constructs were generated; expressed in transfected cells; host or cells: CHO cells, lentiviral transduction, sorted to >98% purity; conditions: for PD-L1 MFI at 33.3 nM: CHO cells stably expressing PD-L1; for Ratio of PDL1:CD28: ratio of MFI at 33.3 nM
Sequence of huPD-L1 (Q9NZQ7 19-290): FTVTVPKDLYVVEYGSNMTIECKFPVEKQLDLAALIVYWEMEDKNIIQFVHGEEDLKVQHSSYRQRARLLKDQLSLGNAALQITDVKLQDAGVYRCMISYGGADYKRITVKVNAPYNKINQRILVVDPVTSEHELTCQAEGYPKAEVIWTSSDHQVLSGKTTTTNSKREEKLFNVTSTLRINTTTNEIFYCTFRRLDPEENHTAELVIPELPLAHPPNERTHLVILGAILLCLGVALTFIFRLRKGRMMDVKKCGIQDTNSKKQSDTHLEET
How it was run: as §1

[3] = target: huCTLA4 (Homo sapiens, UniProt P16410); assay: Flow binding to CHO cells stably expressing CTLA4; set-up: huCTLA4 and huPD-L1, full-length mammalian surface expression constructs were generated; expressed in transfected cells; host or cells: CHO cells, lentiviral transduction, sorted to >98% purity; conditions: for CTLA4 MFI at 33.3 nM: CHO cells stably expressing CTLA4
Sequence of huCTLA4 (P16410 36-223): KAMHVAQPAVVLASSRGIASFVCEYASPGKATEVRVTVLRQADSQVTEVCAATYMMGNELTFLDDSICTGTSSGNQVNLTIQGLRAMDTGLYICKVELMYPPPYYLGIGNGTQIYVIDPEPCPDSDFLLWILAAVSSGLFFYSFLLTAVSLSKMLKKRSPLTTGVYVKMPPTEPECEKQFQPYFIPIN
How it was run: as §1

[4] = target: T1, CD28; assay: Jurkat/IL2 + CHO/OKT3 +/- PD-L1 reporter assay: PD-L1-dependent CD28 costimulation; format: cell-based; set-up: host or cells: Jurkat cells expressing an IL-2-luciferase reporter; conditions: 5.0 nM
How it was run: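 Jurkat reporter cells (100,000/well) preincubated 15 min at room temperature with test protein, then cocultured 5 h at 37 °C with CHO aAPCs bearing anti-CD3 scFv (OKT3) with or without PD-L1. Luciferase luminescence (RLU) read after lysis-substrate addition.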

[5] = Table E23, CD80 IgV-Fc (inert) at 33.3 nM, Jurkat (CD28)
[6] = Table E23, MFI at 33.3 nM relative to CD80 WT IgV-Fc
[7] = Table E23, CD80 IgV-Fc (inert) at 33.3 nM
[8] = Table E24, Jurkat/IL2 + CHO/OKT3/PD-L1
[9] = Table E25, linker variants, 33.3 nM, Jurkats (CD28)
[10] = Table E25, linker variants, relative to CD80 WT IgV-Fc
[11] = Table E25, linker variants, 33.3 nM
[12] = Table E26, linker variants, Jurkat/IL2 + CHO/OKT3/PD-L1

| Molecule | CD28 MFI at 33.3 nM [1, 5] | CD28 Fold change to WT CD80 [1, 6] | PD-L1 MFI at 33.3 nM [2, 7] | PD-L1 Fold change to WT CD80 [2, 6] | Ratio of PDL1:CD28 ([2]; Table E23) | CTLA4 MFI at 33.3 nM [3, 7] | CTLA4 Fold change to WT CD80 [3, 6] | Fold Increase over WT CD80-IgV-Fe [4, 8] | Relative Luciferase Units (RLU), CD80 Conc 5.0 nM [4, 8] [RLU] | CD28 MFI at 33.3 nM [1, 9] | CD28 Fold change to WT CD80 [1, 10] | PD-L1 MFI at 33.3 nM [2, 11] | Ratio of PDL1:CD28 ([2]; Table E25, linker variants) | PD-L1 Fold change to WT CD80 [2, 10] | CTLA4 MFI at 33.3 nM [3, 11] | CTLA4 Fold change to WT CD80 [3, 10] | Fold Increase over WT CD80-IgV-Fe ([4]; Table E26, linker variants) | Relative Luciferase Units (RLU), CD80 Conc 5.0 nM [4, 12] [RLU] |
| --- | --- | --- | --- | --- | --- | --- | --- | --- | --- | --- | --- | --- | --- | --- | --- | --- | --- | --- |
| B1 | 1366 | 13.4 | 68498 | 415.1 | 50.1 | 20911 | 15.1 | 6.2 | 1053 |  |  |  |  |  |  |  |  |  |
| B2 |  |  |  |  |  |  |  |  |  | 2634 | 47.1 | 22862 | 9 | 490.6 | 27516 | 23.0 | 4.38 | 1707 |
| B3 | 3170 | 31.1 | 22395 | 135.7 | 7.1 | 15206 | 11.0 | 5.4 | 919 |  |  |  |  |  |  |  |  |  |
| B4 | 6253 | 61.3 | 67503 | 409.1 | 10.8 | 22132 | 16.0 | 4.5 | 771 |  |  |  |  |  |  |  |  |  |
| B5 |  |  |  |  |  |  |  |  |  | 197 | 3.5 | 25461 | 129 | 546.4 | 32048 | 26.8 | 5.25 | 2046 |
| B6 | 3126 | 30.6 | 33597 | 203.6 | 10.7 | 17654 | 12.8 | 4.6 | 795 |  |  |  |  |  |  |  |  |  |
| B7 | 2452 | 24.0 | 52405 | 317.6 | 21.4 | 16192 | 11.7 | 4.7 | 808 |  |  |  |  |  |  |  |  |  |
| B8 |  |  |  |  |  |  |  |  |  | 4678 |  | 20442 | 4 |  | 3091 |  | 2.63 | 1026 |
| B9 |  |  |  |  |  |  |  |  |  | 4173 |  | 22538 | 5 |  | 12177 |  | 2.77 | 1079 |

— patent US20220177587A1, “METHODS AND USES OF VARIANT CD80 FUSION PROTEINS AND RELATED CONSTRUCTS” (Alpine Immune Sciences, Inc., priority 2018, published 2022)
